Measurements from article PMC3724922 (PLoS ONE, 2013).
Substitutions are numbered along the chain they refer to. In names and notes the source's numbering stands.

B1: laforin C109S/110S, recombinant, no epitope tag (enzyme, human, UniProt O95278 1-331, looked up)
chain: MRFRFGVVVPPAVAGARPELLVVGSRPELGRWEPRGAVRLRPAGTAAGDGALALQEPGLWLGEVELAAEEAAQDGAEPGRVDTFWYKFLKREPGGELSWEGNGPHHDRSSTYNENNLVDGVYCLPIGHWIEATGHTNEMKHTTDFYFNIAGHQAMHYSRILPNIWLGSCPRQVEHVTIKLKHELGITAVMNFQTEWDIVQNSSGCNRYPEPMTPDTMIKLYREEGLAYIWMPTPDMSTEGRVQMLPQAVCLLHALLEKGHIVYVHCNAGVGRSTAAVCGWLQYVMGWNLRKVQYFLMAKRPAVYIDEEALARAQEDFFQKFGKVRSSVCSL
notes: laforin, human, 331 amino acids (EPM2A), double mutant C109S/110S; source: E. coli BL21 (RIL), pET21b+, purified (amylose resin)
B2: laforin C205S, recombinant, no epitope tag (enzyme, human, UniProt O95278 1-331, looked up)
chain: B1 chain with S109C, S110C, C205S
notes: laforin, human, 331 amino acids (EPM2A), mutant C205S; source: E. coli BL21 (RIL), pET21b+, purified (amylose resin)
B3: laforin C250S, recombinant, no epitope tag (enzyme, human, UniProt O95278 1-331, looked up)
chain: B1 chain with S109C, S110C, C250S
notes: laforin, human, 331 amino acids (EPM2A), mutant C250S; source: E. coli BL21 (RIL), pET21b+, purified (amylose resin)
B4: laforin wild type, recombinant, no epitope tag (enzyme, human, UniProt O95278 1-331, looked up)
chain: B1 chain with S109C, S110C
notes: laforin, human, a 331 amino acid protein encoded by EPM2A; amplified from pEG202-laforin into pET21b+ (NdeI, NotI); also called laforin WT; wt laforin; source: E. coli BL21 (RIL), pET21b+-laforin, purified (amylose resin)
B5: laforin C123S, recombinant, no epitope tag (enzyme, human, UniProt O95278 1-331, looked up)
chain: B1 chain with S109C, S110C, C123S
notes: laforin, human, 331 amino acids (EPM2A), mutant C123S; source: E. coli BL21 (RIL), pET21b+, purified (amylose resin)
B6: laforin C169S, recombinant, no epitope tag (enzyme, human, UniProt O95278 1-331, looked up)
chain: B1 chain with S109C, S110C, C169S
notes: laforin, human, 331 amino acids (EPM2A), mutant C169S; source: E. coli BL21 (RIL), pET21b+, purified (amylose resin)
B7: wild type laforin with an amino-terminal HIS6 epitope (enzyme, human, UniProt O95278 1-331, looked up)
chain: B1 chain with S109C, S110C
notes: laforin, human, 331 amino acids (EPM2A); The plasmid of the His6 constructs is not described in the methods; also called laforin-WT; WT; not shown: His6, N-terminal, kept
B8: laforin C266S, recombinant, no epitope tag (enzyme, human, UniProt O95278 1-331, looked up)
chain: B1 chain with S109C, S110C, C266S
notes: laforin, human, 331 amino acids (EPM2A), catalytic cysteine mutant C266S; source: E. coli BL21 (RIL), pET21b+, purified (amylose resin)

Key:
[1] = target: the molecule itself; experiment: native gel or EMSA; purified recombinant proteins, non-reducing, non-denaturing electrophoresis (SDS- and DTT-free loading buffer), immunoblot with anti-laforin or anti-HIS antibody; self-association, monomer and dimer bands
[2] = target: the molecule itself; experiment: native gel or EMSA; purified recombinant proteins incubated with 10 mM H2O2, then non-reducing, non-denaturing electrophoresis, anti-laforin immunoblot

Protein	binding result [1]	binding result [2]
B1	binds	–
B2	binds	–
B3	binds	–
B4	–	binds
B5	binds	–
B6	binds	–
B7	binds	–
B8	binds	–
